The values that follow come from PMC12806343.

Series [1] concerns the target membrane-bound PD-L1 on MDA-MB-231 cells (Homo sapiens?) (UniProt Q9NZQ7). Briefly: cell retention assay. The settings on record: aptamer on slide, 5' amine (NH2), BLI: 1x PBS pH 7.4, aptamers 3-12 uM, 300 s association, 600 s dissociation, temperature not stated, EMSA: TBE-PAGE, binding buffer composition not given.
Series [2] has as its target membrane-bound PD-L1 on MDA-MB-231 cells, PNGase F treated (UniProt Q9NZQ7). Briefly: cell retention assay. The settings on record: 5' amine (NH2), BLI: 1x PBS pH 7.4, aptamers 3-12 uM, 300 s association, 600 s dissociation, temperature not stated, EMSA: TBE-PAGE, binding buffer composition not given.

membrane-bound PD-L1 on MDA-MB-231 cells (Homo sapiens?), sequence (Q9NZQ7 19-290): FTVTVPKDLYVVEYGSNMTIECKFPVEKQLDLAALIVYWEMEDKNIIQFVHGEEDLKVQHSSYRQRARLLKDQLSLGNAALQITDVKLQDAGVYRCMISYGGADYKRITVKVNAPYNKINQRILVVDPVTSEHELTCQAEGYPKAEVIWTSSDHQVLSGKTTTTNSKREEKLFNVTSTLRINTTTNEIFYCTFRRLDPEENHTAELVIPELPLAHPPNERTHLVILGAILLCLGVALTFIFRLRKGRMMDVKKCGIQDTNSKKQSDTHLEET
membrane-bound PD-L1 on MDA-MB-231 cells, PNGase F treated, sequence (Q9NZQ7 19-290): as above

As for “ATAGTCCCTGGCGTGCTTGGTCGGCAGAGCAGGTACGGTGTCA [Apt45]”, the values for the binding signal (% cells retained) in series [1] (negligible adhesion) and in series [2] were 5.9 and 46, respectively.
Turning to “GTACCTGCTCTCCGCGCGAAGCACGCCAGGGACT [Tr-Apt13]”, the binding signal (% cells retained) in series [1] is 86.8.
With “TGACACCGTACCTGCTCTCCGCGCGAAGCACGCCAGGGACTAT [Apt13]”, the figures for the binding signal (% cells retained) in series [1] (comparison with Apt45) and in series [1] (comparison with Tr-Apt13) were 72.9 and 62.8, respectively.
